This passage reports koff results from patent EP4737482A1 (Atheon Bio, Inc., dated 2026).

This assay has as its target T1, human MYCT1 (hMYCT1) (human, UniProt Q8N699 1-235, limits assumed).
T1 construct: also called MYC Target 1
T1 sequence: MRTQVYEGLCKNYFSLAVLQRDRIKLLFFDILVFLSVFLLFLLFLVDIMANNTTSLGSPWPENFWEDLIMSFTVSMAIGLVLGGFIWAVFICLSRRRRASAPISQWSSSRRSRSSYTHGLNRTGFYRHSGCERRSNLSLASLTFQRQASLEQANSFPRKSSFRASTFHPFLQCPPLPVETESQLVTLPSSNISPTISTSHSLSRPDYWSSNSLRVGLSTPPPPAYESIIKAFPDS
The assay can be described thus: SPR koff ranking, single curve, antibody captured via anti-human Fc IgG, 10 nM MYCT1 as analyte, 1:1 binding model.

Residue numbers refer to the chain shown, from its start.

B1: 11B6-z0-uIgG1K (antibody, V domains shown)
VH: EVQLVESGGGLVKPGGSLRLSCAASGFTFSDFGIHWVRQAPGKGLEWVSYISSGSRTIHYADTVKGRFTISRDNAKNSLYLQMNSLRAEDTAVYYCARRDWDPEWLAYWGQGTLVTVSS
VL: DIVMTQSPLSLPVTPGEPASISCRSSLSLVHSNGHTYLHWYLQKPGQSPQLLIYKVSNRFSGVPDRFSGSGSGTDFTLKISRVEAEDVGVYYCSQSTHVPFTFGQGTKLEIK
The koff is a measure of how fast the partners let go of each other. With B1, the koff was determined as 0.0624 s⁻¹.

B2: 11B6-z7-uIgG1K (antibody, V domains shown)
VH: B1 VH
VL: B1 VL with S81R
Molecule B2 came in with a koff of 0.0473 s⁻¹.

B3: 11B6-z6-uIgG1K (antibody, V domains shown)
VH: B1 VH
VL: B1 VL with Q50K
In the case of B3, the dissociation rate constant (koff) came to 0.0377 s⁻¹.

B4: 11B6-z5-uIgG1K (antibody, V domains shown)
VH: B1 VH
VL: B1 VL with I2V
B4: the koff stood at 0.0521 s⁻¹.

B5: 11B6-z8-uIgG1K (antibody, V domains shown)
VH: B1 VH
VL: B1 VL with Y92F
The molecule B5 registered a koff of 0.0324 s⁻¹.

B6: 11B6-p1-uIgG1K (antibody, V domains shown)
VH: EVQLVESGGGLVKPGGSLKLSCAASGFTFSDFGIHWVRQAPEKGLEWVGYISSGSRTIHYADTVKGRFTISRDNAKNTLFLQMTNLRSEDTAIYYCARRDWDPEWLAYWGQGTLVTISA
VL: DVVMTQAPLSLPVSLGDQASISCRSSLSLVHSQGHTYLHWYLQKPGQSPKLLIYKVSNRFSGVPDRFSGSGSGTDFTLKIRRVEAEDLGVYFCSQSTHVPFTFGSGTKLEIK
On to B6, for which the koff turned out to be 0.00933 s⁻¹.

B7: 11B6-z2-uIgG1K (antibody, V domains shown)
VH: B1 VH with S78T
VL: B1 VL
With B7, the koff turned out to be 0.056 s⁻¹.

B8: 11B6-z4-uIgG1K (antibody, V domains shown)
VH: B1 VH with V93I
VL: B1 VL
On to B8, for which the koff came out at 0.0476 s⁻¹.

B9: 11B6-z11-uIgG1K (antibody, V domains shown)
VH: B1 VH with S49G, V93I
VL: B1 VL with I2V, Y92F
B9 came in with a koff of 0.0102 s⁻¹.

B10: 11B6-z3-uIgG1K (antibody, V domains shown)
VH: B1 VH with Y80F
VL: B1 VL
B10 came in with a koff of 0.0659 s⁻¹.

B11: 11B6-z1-uIgG1K (antibody, V domains shown)
VH: B1 VH with S49G
VL: B1 VL
The molecule B11 registered a koff of 0.0169 s⁻¹. Against the preceding molecule, the koff is about 3.9-fold lower.

B12: 11B6-z10-uIgG1K (antibody, V domains shown)
VH: B1 VH with S49G
VL: B1 VL with I2V, Y92F
With B12, the koff was 0.0102 s⁻¹.

B13: 11B6-z9-uIgG1K (antibody, V domains shown)
VH: B1 VH
VL: B1 VL with I2V, Y92F
B13 displayed a koff of 0.0311 s⁻¹.

B14: 11B6-z15-uIgG1K (antibody, V domains shown)
VH: B1 VH with S49G, S78T, Y80F, V93I
VL: B6 VL with Q33N
B14: the koff is 0.00906 s⁻¹.

B15: 11B6-p3-uIgG1K (antibody, V domains shown)
VH: B6 VH
VL: B6 VL with Q33N, G34A
The molecule B15 gave a koff of 0.00547 s⁻¹.

B16: 11B6-p2-uIgG1K (antibody, V domains shown)
VH: B6 VH
VL: B6 VL with Q33S
In the case of B16, the off-rate (koff) was 0.00691 s⁻¹.

B17: 11B6-z14-uIgG1K (antibody, V domains shown)
VH: B6 VH
VL: B1 VL with I2V, Q50K, S81R, Y92F
On to B17, for which the koff came to 0.0052 s⁻¹.
